This note sets out measurements from US20130236458A1 (AbbVie / Abbott, published 2013).

Experiment [1] deals with T1, Recombinant Human IL-13 (human, UniProt P35225 35-146, limits assumed).
T1 construct: bought reagent
In words: SPR (Biacore). The method, then: (§1) The BIACORE assay (Biacore, Inc, Piscataway, N.J.) determined the affinity of antibodies or DVD-Ig with kinetic measurements of on-rate and off-rate constants. Binding of antibodies or DVD-Ig proteins to a target antigen (for example, a purified recombinant target antigen) was determined by surface plasmon resonance-based measurements with a Biacore®1000 or 3000 instrument (Biacore® AB, Uppsala, Sweden) using running HBS-EP (10 mM HEPES [pH 7.4], 150 mM NaCl, 3 mM EDTA, and 0.005% surfactant P20) at 25° C. All chemicals were obtained from Biacore® AB (Uppsala, Sweden) or otherwise from a different source as described in the text. For example, approximately 5000 RU of goat anti-mouse IgG, (Fcγ), fragment specific polyclonal antibody (Pierce Biotechnology Inc, Rockford, Ill.) diluted in 10 mM sodium acetate (pH 4.5) was directly immobilized across a CM5 research grade biosensor chip using a standard amine coupling kit according to manufacturer's instructions and procedures at 25 μg/ml. Unreacted moieties on the biosensor surface were blocked with ethanolamine. Modified carboxymethyl dextran surface in flowcell 2 and 4 was used as a reaction surface. Unmodified carboxymethyl dextran without goat anti-mouse IgG in flow cell 1 and 3 was used as the reference surface. For kinetic analysis, rate equations derived from the 1:1 Langmuir binding model were fitted simultaneously to association and dissociation phases of all eight injections (using global fit analysis) with the use of Biaevaluation 4.0.1 software. Purified antibodies or DVD-Ig proteins were diluted in HEPES-buffered saline for capture across goat anti-mouse IgG specific reaction surfaces. Antibodies or DVD-Ig proteins to be captured as a ligand (25 μg/ml) were injected over reaction matrices at a flow rate of 5 μl/minute. The association and dissociation rate constants, kₒₙ (M⁻¹s⁻¹) and koff (s⁻¹) were determined under a continuous flow rate of 25 μl/minute. Rate constants were derived by making kinetic binding measurements at different antigen concentrations ranging from 10-200 nM. The equilibrium dissociation constant (M) of the reaction between antibodies or DVD-Ig proteins and the target antigen was then calculated from the kinetic rate constants by the following formula: KD=koff/kₒₙ. Binding was recorded as a function of time and kinetic rate constants were calculated.

The target in experiment [2] is T2, Recombinant Human IL-17 (human, UniProt Q16552 20-155, limits assumed).
T2 construct: bought reagent; also called IL-17A
T2 sequence (looked up): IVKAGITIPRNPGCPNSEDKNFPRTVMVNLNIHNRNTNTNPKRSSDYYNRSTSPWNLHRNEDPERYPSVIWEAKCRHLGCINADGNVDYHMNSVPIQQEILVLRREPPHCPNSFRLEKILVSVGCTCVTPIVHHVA
The experiment in a line: SPR (Biacore). The method, then:
as §1

Experiment [3] concerns the target T1, Recombinant Human IL-13. In words: cell-based or functional assay.
Experiment [4] deals with T2, Recombinant Human IL-17. In words: cell-based or functional assay.

Changes are numbered by the printed parent chain. Some results are limits rather than exact numbers.

T1 sequence (P35225 35-146 limits assumed): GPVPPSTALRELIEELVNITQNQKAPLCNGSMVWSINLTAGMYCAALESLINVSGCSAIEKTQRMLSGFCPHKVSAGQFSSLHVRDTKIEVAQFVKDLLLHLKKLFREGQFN

B1: DVD2158 (bispecific antibody)
VH: EVTLRESGPGLVKPTQTLTLTCTLYGFSLSTSDMGVDWIRQPPGKGLEWLAHIWWDDVKRYNPALKSRLTISKDTSKNQVVLKLTSVDPVDTATYYCARTVSSGYIYYAMDYWGQGTLVTVSSASTKGPSVFPLAPEVQLVQSGAEVKKPGSSVKVSCKASGGSFGGYGIGWVRQAPGQGLEWMGGITPFFGFADYAQKFQGRVTITADESTTTAYMELSGLTSDDTAVYYCARDPNEFWNGYYSTHDFDSWGQGTTVTVSS
VL: DIQMTQSPSSLSASVGDRVTISCRASQDIRNYLNWYQQKPGKAPKLLIFYTSKLHSGVPSRFSGSGSGTDYTLTISSLQPEDIATYYCQQGLTPPLTFGGGTKVEIKRTVAAPEIVLTQSPDFQSVTPKEKVTITCRASQDIGSELHWYQQKPDQPPKLLIKYASHSTSGVPSRFSGSGSGTDFTLTINGLEAEDAGTYYCHQTDSLPYTFGPGTKVDIKR
notes: DVD-Ig; also called DVD2158H; DVD2158L
Turning to B1, in experiment [1], the Kd was determined as 0.086 nM, the koff was determined as 0.00014 s⁻¹ and the kon was 1.6e+06 M⁻¹ s⁻¹. In experiment [2], the Kd is less than 0.05 nM, the koff is less than 1e-06 s⁻¹ and the kon is 20000 M⁻¹ s⁻¹. Further, the “N-Terminal VD IL13 Neutralization Assay IC50” value in experiment [3] turned out to be 0.131 nM. For the same molecule, the “C-Terminal VD IL17 Neutralization Assay IC50” value in experiment [4] amounted to 0.0998 nM.

B2: DVD2164 (bispecific antibody)
VH: EVTLRESGPGLVKPTQTLTLTCTLYGFSLSTSDMGVDWIRQPPGKGLEWLAHIWWDDVKRYNPALKSRLTISKDTSKNQVVLKLTSVDPVDTATYYCARTVSSGYIYYAMDYWGQGTLVTVSSASTKGPSVFPLAPEVQLVQSGAEVKKPGESVKISCKASGGSFRSYGISWVRQAPGQGLEWMGGITHFFGITDYAQKFQGRVTITADESTTTAYMELSGLTSDDTAVYYCAREPNDFWNGYYDTHDFDSWGQGTTVTVSS
VL: B1 VL with D141N, P156S, T168I, G197A, T204S, S206T, Y209H, P213Q
notes: DVD-Ig; also called DVD2164H; DVD2164L
For B2, in experiment [1], the Kd was found to be 0.11 nM, the koff stood at 0.00017 s⁻¹ and the kon is 1.5e+06 M⁻¹ s⁻¹. Also, in experiment [2], the Kd is 1.7 nM, the koff was determined as 3.1e-05 s⁻¹ and the kon is 18000 M⁻¹ s⁻¹. Further, the “N-Terminal VD IL13 Neutralization Assay IC50” value in experiment [3] amounted to 0.146 nM. For the same molecule, in experiment [4], the “C-Terminal VD IL17 Neutralization Assay IC50” value stood at 0.135 nM.

B3: DVD2155 (bispecific antibody)
VH: EVQLVQSGAEVKKPGSSVKVSCKASGGSFGGYGIGWVRQAPGQGLEWMGGITPFFGFADYAQKFQGRVTITADESTTTAYMELSGLTSDDTAVYYCARDPNEFWNGYYSTHDFDSWGQGTTVTVSSASTKGPEVTLRESGPGLVKPTQTLTLTCTLYGFSLSTSDMGVDWIRQPPGKGLEWLAHIWWDDVKRYNPALKSRLTISKDTSKNQVVLKLTSVDPVDTATYYCARTVSSGYIYYAMDYWGQGTLVTVSS
VL: EIVLTQSPDFQSVTPKEKVTITCRASQDIGSELHWYQQKPDQPPKLLIKYASHSTSGVPSRFSGSGSGTDFTLTINGLEAEDAGTYYCHQTDSLPYTFGPGTKVDIKRTVAAPDIQMTQSPSSLSASVGDRVTISCRASQDIRNYLNWYQQKPGKAPKLLIFYTSKLHSGVPSRFSGSGSGTDYTLTISSLQPEDIATYYCQQGLTPPLTFGGGTKVEIKR
notes: DVD-Ig; also called DVD2155H; DVD2155L
With B3, in experiment [1], the Kd came out at 0.16 nM, the koff worked out at 3.8e-05 s⁻¹ and the on-rate constant (kon) was 230000 M⁻¹ s⁻¹. Besides, in experiment [2], the Kd is 0.0026 nM, the koff was 6.9e-06 s⁻¹ and the kon came out at 2.7e+06 M⁻¹ s⁻¹. The “C-Terminal VD IL13 Neutralization Assay IC50” value in experiment [3] is 1.18 nM. The “N-Terminal VD IL17 Neutralization Assay IC50” value in experiment [4] came to 0.0078 nM.

B4: DVD2161 (bispecific antibody)
VH: EVQLVQSGAEVKKPGESVKISCKASGGSFRSYGISWVRQAPGQGLEWMGGITHFFGITDYAQKFQGRVTITADESTTTAYMELSGLTSDDTAVYYCAREPNDFWNGYYDTHDFDSWGQGTTVTVSSASTKGPEVTLRESGPGLVKPTQTLTLTCTLYGFSLSTSDMGVDWIRQPPGKGLEWLAHIWWDDVKRYNPALKSRLTISKDTSKNQVVLKLTSVDPVDTATYYCARTVSSGYIYYAMDYWGQGTLVTVSS
VL: B3 VL with D28N, P43S, T55I, G84A, T91S, S93T, Y96H, P100Q
notes: DVD-Ig; also called DVD2161H; DVD2161L
Consider B4, for which, in experiment [1], the dissociation constant Kd stood at 0.38 nM, the koff was determined as 4.1e-05 s⁻¹ and the kon was 110000 M⁻¹ s⁻¹. In addition, in experiment [2], the Kd was 0.027 nM, the koff was found to be 4.5e-05 s⁻¹ and the kon was 1.6e+06 M⁻¹ s⁻¹. Moreover, the “C-Terminal VD IL13 Neutralization Assay IC50” value in experiment [3] was 0.812 nM. For the same molecule, the “N-Terminal VD IL17 Neutralization Assay IC50” value in experiment [4] amounted to 0.0144 nM.

B5: DVD2165 (bispecific antibody)
VH: EVQLVQSGAEVKKPGESVKISCKASGGSFRSYGISWVRQAPGQGLEWMGGITHFFGITDYAQKFQGRVTITADESTTTAYMELSGLTSDDTAVYYCAREPNDFWNGYYDTHDFDSWGQGTTVTVSSASTKGPSVFPLAPEVTLRESGPGLVKPTQTLTLTCTLYGFSLSTSDMGVDWIRQPPGKGLEWLAHIWWDDVKRYNPALKSRLTISKDTSKNQVVLKLTSVDPVDTATYYCARTVSSGYIYYAMDYWGQGTLVTVSS
VL: B3 VL with D28N, P43S, T55I, G84A, T91S, S93T, Y96H, P100Q
notes: DVD-Ig; also called DVD2165H; DVD2165L
On to B5, for which, in experiment [1], the Kd amounted to 0.22 nM, the koff amounted to 5.7e-05 s⁻¹ and the kon worked out at 260000 M⁻¹ s⁻¹. Further, in experiment [2], the dissociation constant Kd worked out at 0.014 nM, the koff came out at 3.2e-05 s⁻¹ and the kon was 2.3e+06 M⁻¹ s⁻¹. Besides, the “C-Terminal VD IL13 Neutralization Assay IC50” value in experiment [3] is 0.355 nM. For the same molecule, the “N-Terminal VD IL17 Neutralization Assay IC50” value in experiment [4] came to 0.0133 nM.

B6: DVD2157 (bispecific antibody)
VH: B3 VH
VL: EIVLTQSPDFQSVTPKEKVTITCRASQDIGSELHWYQQKPDQPPKLLIKYASHSTSGVPSRFSGSGSGTDFTLTINGLEAEDAGTYYCHQTDSLPYTFGPGTKVDIKRTVAAPSVFIFPPDIQMTQSPSSLSASVGDRVTISCRASQDIRNYLNWYQQKPGKAPKLLIFYTSKLHSGVPSRFSGSGSGTDYTLTISSLQPEDIATYYCQQGLTPPLTFGGGTKVEIKR
notes: DVD-Ig; also called DVD2157H; DVD2157L
B6: in experiment [1], the Kd was 0.21 nM, the koff is 6.9e-05 s⁻¹ and the kon was 330000 M⁻¹ s⁻¹. In experiment [2], the Kd turned out to be 0.018 nM, the koff was 2.6e-05 s⁻¹ and the association rate constant (kon) came to 1.5e+06 M⁻¹ s⁻¹. Also, the “C-Terminal VD IL13 Neutralization Assay IC50” value in experiment [3] turned out to be 0.244 nM. Moreover, the “N-Terminal VD IL17 Neutralization Assay IC50” value in experiment [4] came to 0.0066 nM.

B7: DVD2159 (bispecific antibody)
VH: EVQLVQSGAEVKKPGSSVKVSCKASGGSFGGYGIGWVRQAPGQGLEWMGGITPFFGFADYAQKFQGRVTITADESTTTAYMELSGLTSDDTAVYYCARDPNEFWNGYYSTHDFDSWGQGTTVTVSSASTKGPSVFPLAPEVTLRESGPGLVKPTQTLTLTCTLYGFSLSTSDMGVDWIRQPPGKGLEWLAHIWWDDVKRYNPALKSRLTISKDTSKNQVVLKLTSVDPVDTATYYCARTVSSGYIYYAMDYWGQGTLVTVSS
VL: B3 VL
notes: DVD-Ig; also called DVD2159H; DVD2159L
For the molecule B7, in experiment [1], the Kd was 0.2 nM, the koff was 5.3e-05 s⁻¹ and the kon amounted to 260000 M⁻¹ s⁻¹. Further, in experiment [2], the dissociation constant Kd is 0.0049 nM, the koff was determined as 1.2e-05 s⁻¹ and the kon was 2.5e+06 M⁻¹ s⁻¹. Also, the “C-Terminal VD IL13 Neutralization Assay IC50” value in experiment [3] came to 0.876 nM. In addition, in experiment [4], the “N-Terminal VD IL17 Neutralization Assay IC50” value is 0.0081 nM.
